This passage reports Kd results from patent US20210046154A1.

What is called Kd is the constant that tells how readily two partners part at equilibrium.

The target of the test is Siglec-10Fc (human) (UniProt Q96LC7). As to the kind of experiment: Biacore (SPR): control Fc compared with CD24Fc for binding of Siglec-10Fc; only the fitted value is printed under the KD line, no curve is drawn for the control. On the technique in general: SPR reads the build-up and loss of mass on a sensor chip optically.
Chain of UniProt Q96LC7 (Q96LC7 17-546): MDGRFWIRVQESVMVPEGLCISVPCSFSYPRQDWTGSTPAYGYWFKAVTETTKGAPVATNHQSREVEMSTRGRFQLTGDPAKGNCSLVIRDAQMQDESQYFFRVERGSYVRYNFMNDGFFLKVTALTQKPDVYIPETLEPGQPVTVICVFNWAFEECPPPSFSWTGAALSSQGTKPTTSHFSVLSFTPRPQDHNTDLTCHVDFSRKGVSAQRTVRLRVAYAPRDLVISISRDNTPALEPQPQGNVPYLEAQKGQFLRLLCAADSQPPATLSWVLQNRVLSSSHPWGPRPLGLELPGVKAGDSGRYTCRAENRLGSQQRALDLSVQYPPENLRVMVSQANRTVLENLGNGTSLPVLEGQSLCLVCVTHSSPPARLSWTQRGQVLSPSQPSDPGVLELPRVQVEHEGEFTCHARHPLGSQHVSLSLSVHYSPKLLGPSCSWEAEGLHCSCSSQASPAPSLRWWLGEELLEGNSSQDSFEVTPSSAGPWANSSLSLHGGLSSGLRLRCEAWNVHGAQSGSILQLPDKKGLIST

The substance control Fc returned a Kd of 16.2 µM.
